Values quoted from earlier work in PMC9221429.
pKd: −log10 of the molar value.

Experiments:
B-Raf (Homo sapiens) = B-Raf (Homo sapiens) (UniProt P15056)
[1] = target: B-Raf V600E (Homo sapiens) (UniProt P15056)
Sequence of B-Raf V600E (Homo sapiens) (P15056 2-766 V600E): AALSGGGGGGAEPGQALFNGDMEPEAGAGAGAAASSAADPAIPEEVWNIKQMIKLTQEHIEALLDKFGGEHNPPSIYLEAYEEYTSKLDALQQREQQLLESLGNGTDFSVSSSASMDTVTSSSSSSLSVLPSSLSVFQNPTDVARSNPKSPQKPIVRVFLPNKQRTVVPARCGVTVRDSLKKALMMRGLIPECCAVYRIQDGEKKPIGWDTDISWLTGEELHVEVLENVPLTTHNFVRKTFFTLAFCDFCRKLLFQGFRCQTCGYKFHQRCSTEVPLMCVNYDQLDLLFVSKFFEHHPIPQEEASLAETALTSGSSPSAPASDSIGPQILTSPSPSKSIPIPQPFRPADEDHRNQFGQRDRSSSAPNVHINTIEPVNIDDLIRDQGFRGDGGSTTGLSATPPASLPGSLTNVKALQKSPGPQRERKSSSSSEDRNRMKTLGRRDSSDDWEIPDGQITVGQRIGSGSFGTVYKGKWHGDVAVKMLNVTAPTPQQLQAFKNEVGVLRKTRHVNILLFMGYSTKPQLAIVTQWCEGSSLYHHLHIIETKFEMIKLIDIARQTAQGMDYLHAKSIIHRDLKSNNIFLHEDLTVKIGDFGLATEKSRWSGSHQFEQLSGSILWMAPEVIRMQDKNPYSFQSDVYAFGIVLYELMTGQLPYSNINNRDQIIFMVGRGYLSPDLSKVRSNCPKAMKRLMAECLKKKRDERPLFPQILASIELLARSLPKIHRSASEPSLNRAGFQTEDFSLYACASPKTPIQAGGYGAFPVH

Sequence of Cdc37 (Q16543 2-378): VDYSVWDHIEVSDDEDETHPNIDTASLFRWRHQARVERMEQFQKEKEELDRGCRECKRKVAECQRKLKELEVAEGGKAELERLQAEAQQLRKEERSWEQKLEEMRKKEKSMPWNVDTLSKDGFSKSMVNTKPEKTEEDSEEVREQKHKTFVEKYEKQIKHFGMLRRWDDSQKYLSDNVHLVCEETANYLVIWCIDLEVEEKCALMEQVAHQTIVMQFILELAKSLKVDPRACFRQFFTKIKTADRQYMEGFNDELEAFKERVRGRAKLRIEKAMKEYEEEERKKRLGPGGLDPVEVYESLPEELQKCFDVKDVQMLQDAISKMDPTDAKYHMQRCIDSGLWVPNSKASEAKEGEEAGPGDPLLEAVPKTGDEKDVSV
Sequence of B-Raf (Homo sapiens) (P15056 2-766): as the sequence (P15056 2-766 V600E) above, with E599V counted along it

Q: With Cdc37 (from UniProt Q16543) as the substance, how does the pKd (B-Raf (Homo sapiens)) read?
A: The pKd was 6.00.

Q: And the pKd [1]?
A: The pKd was 6.40.
